{"source": "patent US20110251106A1", "about": "(NEXTERA, published 2011)", "binders": {"B1": {"name": "wild type pVII on M13K07 wt helper phage virions (other)", "chain": "MEQVADFDTIYQAMIQISVVLCFALGIIAGGQR", "notes": "Control virion with no tag on pVII; Also used here for phagemid virions packaged with wt M13K07; also called wildtype M13K07; wt pVII"}}, "biological_target": "T1, Streptavidin on Dynabeads MyOne-Streptavidin magnetic beads (UniProt P22629 37-163, limits assumed)", "T1 construct": "also called SA; SA beads", "T1 sequence (P22629 37-163 limits assumed)": "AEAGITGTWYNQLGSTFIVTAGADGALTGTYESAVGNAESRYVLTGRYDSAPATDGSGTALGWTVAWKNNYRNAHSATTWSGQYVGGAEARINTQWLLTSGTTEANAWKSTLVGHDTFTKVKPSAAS", "assay": "streptavidin bead capture of virions, anti-M13 MAb-HRP detection"}
{"binder": "B1", "values": [{"measurement": "binding result", "result": "no binding"}]}
